Laboratory results: publication PMC3464278, “Structural Characterization of the Complex of SecB and Metallothionein-Labeled proOmpA by Cryo-Electron Microscopy” (PLoS ONE, 2012)

Target: the molecule itself
Experiment: cryo-EM structure; SecB/pOA1MTAu complex from gel filtration, vitrified on holey carbon grids, FEI Tecnai F20 at 200 kV; single particle analysis (EMAN), 19562 particles; about 20 Å; SecB crystal structure docked manually

B1: SecB (natural protein, E. coli)
chain: MSEQNNTEMTFQIQRIYTKDISFEAPNAPHVFQKDWQPEVKLDLDTASSQLADDVYEVVLRVTVTASLGEETAFLCEVQQGGIFSIAGIEGTQMAHCLGAYCPNILFPYARECITSMVSRGTFPQLNLAPVNFDALFMNYLQQQAGEGTEEHQ
notes: SecB, molecular chaperone of the Sec pathway, E. coli; also called molecular chaperon SecB; E. coli SecB; source: prepared as described previously [26]
- binding result: binds
